Two molecules from PMC3961337 (2014) can be followed below.

One may read the Kd as the free concentration of one partner at which half of the binding sites on the other are occupied at equilibrium, for simple one-to-one binding.

Experiment [1] has as its target T1, rsrA-cfp-pET28a (+) protein (RCP) (S. coelicolor M145, UniProt Q7AKG8 1-105).
T1 chain: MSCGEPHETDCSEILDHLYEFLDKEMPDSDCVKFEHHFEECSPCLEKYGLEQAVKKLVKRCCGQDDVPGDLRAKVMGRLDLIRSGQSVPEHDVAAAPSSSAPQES
In words: BLI. On the technique in general: BLI is a label-free optical method that tracks binding on a fibre tip over time.

The target of experiment [2] is T2, zinc-binding anti-sigma (ZAS) protein RsrA (S. coelicolor M145, UniProt Q7AKG8 1-105).
T2 chain: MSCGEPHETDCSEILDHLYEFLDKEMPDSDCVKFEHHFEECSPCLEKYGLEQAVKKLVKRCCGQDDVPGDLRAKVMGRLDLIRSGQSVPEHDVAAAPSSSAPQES
The experiment is described as follows: BLI.

B1: sigma factor σ^R (natural protein)
chain: not shown
modifications: biotinylated before capture on streptavidin biosensor tips
For B1, the Kd in experiment [1] amounted to 72 nM; in experiment [2], 47 nM.

B2: sigR-yfp-pET28a (+) protein (SYP) (natural protein)
chain: not shown
modifications: biotinylated for the biolayer interferometry only
The molecule B2 had a Kd in experiment [2] of 52 nM.
